The values that follow come from PMC2722380.

By Kd is commonly meant a measure of binding affinity in units of concentration. Broadly, the koff is the rate constant with which the complex falls apart. A word on the kon: it is the second-order rate constant of association.

In this test the target is His-tagged p55 fusion protein (recombinant full length human erythrocyte p55), expressed in E. coli (human) (UniProt Q00013). Description: SPR. (In general: In SPR one partner is held on a chip, and binding of the other changes the refractive index at the surface.)
Chain of His-tagged p55 fusion protein (recombinant full length human erythrocyte p55), expressed in E. coli (human) (Q00013 whole entry, the tested form may be a part): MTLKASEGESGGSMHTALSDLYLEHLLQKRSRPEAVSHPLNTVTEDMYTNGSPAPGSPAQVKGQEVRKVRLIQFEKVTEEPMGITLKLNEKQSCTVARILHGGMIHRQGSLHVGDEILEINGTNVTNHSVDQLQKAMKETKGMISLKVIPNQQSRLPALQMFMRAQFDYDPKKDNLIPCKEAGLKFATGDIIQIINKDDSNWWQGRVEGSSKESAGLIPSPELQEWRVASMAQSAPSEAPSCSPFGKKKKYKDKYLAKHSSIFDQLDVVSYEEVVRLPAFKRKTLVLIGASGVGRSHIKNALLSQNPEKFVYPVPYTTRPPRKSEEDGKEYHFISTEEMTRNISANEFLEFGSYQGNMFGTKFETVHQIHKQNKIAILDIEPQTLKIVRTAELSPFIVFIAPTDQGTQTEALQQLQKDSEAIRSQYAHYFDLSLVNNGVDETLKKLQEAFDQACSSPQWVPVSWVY

Turning to “MBP fusion of the exon 5-encoded peptide of protein 4.1R (domain or fragment)”, the Kd worked out at 0.015 µM, the dissociation rate constant (koff) turned out to be 0.0024 s⁻¹ and the association rate constant (kon) amounted to 160000 M⁻¹ s⁻¹.
Consider “MBP fusion of the exon 10-encoded peptide of protein 4.1R (domain or fragment)”, for which the equilibrium dissociation constant (Kd) came out at 0.03 µM and the koff stood at 0.0018 s⁻¹.
For “MBP-FERMΔExon 5 fusion protein of human protein 4.1R (lacks exon 5, contains exon 10) (domain or fragment)”, the Kd was 0.132 µM, the koff stood at 0.0029 s⁻¹ and the kon was 22000 M⁻¹ s⁻¹.
